Results on three compounds are retold here after PMC7594083, “Preclinical Evaluation of the GRPR-Targeting Antagonist RM26 Conjugated to the Albumin-Binding Domain for GRPR-Targeting Therapy of Cancer” (Pharmaceutics, 2020).

A short description of series [1]: Biodistribution in mice bearing PC-3 xenografts. Type of series: in vivo, mice (BALB/c nu/nu female). To be noted: female, BALB/c nu/nu, mouse, in vivo, iv, 40 pmol, total radioactivity. As for the experimental part: (§1) Instant thin-layer chromatography (ITLC) results were analyzed using Cyclone® Plus (PerkinElmer). […] BALB/c nu/nu female mice were implanted subcutaneously with PC-3 cells in PBS (6.5 × 10^6 cells/mouse) on the hind leg. […] A group of four mice was used per data point. […] After euthanization, the organs of interest were collected and weighed, and the radioactivity content was measured on a gamma counter.

Another series concerns PC-3 xenografts. As to the kind of experiment: Biodistribution in mice bearing PC-3 xenografts. Type of series: in vivo, mice (BALB/c nu/nu female). To be noted: mouse, in vivo. As for the experimental part:
as §1

Series [2] is described as follows: In vivo targeting specificity in mice bearing PC-3 xenografts. To be noted: female, BALB/c nu/nu, mouse, iv, total radioactivity, 40 pmol i.v., 72 h pi, 4 mice, SD, read-out: tumor activity uptake, non-blocked. As for the experimental part:
The activity content was measured using a 2840 automated gamma counter Wizard^2TM (PerkinElmer, Waltham, MA, USA). Instant thin-layer chromatography (ITLC) results were analyzed using Cyclone® Plus (PerkinElmer). Statistical analyses were performed by unpaired, two-tailed t-tests using GraphPad Prism 8 for Windows (GraphPad Software, San Diego, CA, USA); p values below 0.05 were considered significant.
BALB/c nu/nu female mice were implanted subcutaneously with PC-3 cells in PBS (6.5 × 10^6 cells/mouse) on the hind leg. Tumor size was 0.4 ± 0.2 g at the time of the experiment (2−3 weeks following implantations). A group of four mice was used per data point.
The mice were euthanized at 72 h post injection (pi).

The target of series [3] is T1, GRPR (Homo sapiens, UniProt P30550). The following applies: cited from earlier work.
T1 sequence (P30550 whole entry): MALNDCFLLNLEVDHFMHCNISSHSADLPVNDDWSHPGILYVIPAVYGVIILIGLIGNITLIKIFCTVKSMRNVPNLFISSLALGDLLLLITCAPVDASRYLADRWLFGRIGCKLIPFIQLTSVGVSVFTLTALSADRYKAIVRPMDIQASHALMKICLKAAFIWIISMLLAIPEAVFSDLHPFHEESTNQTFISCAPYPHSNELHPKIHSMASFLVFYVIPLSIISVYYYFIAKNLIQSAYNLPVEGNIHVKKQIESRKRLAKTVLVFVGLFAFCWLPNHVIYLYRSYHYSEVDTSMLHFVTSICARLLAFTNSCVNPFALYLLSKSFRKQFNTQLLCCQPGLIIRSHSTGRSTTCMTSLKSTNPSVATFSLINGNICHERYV
For series [4], the target named is T1, GRPR. The following applies: in vivo; cited from earlier work.
The conditions of series [5]: cited from earlier work. An excerpt:
However, as a consequence of the low amplitude for the melting curve of DOTA-ABD-RM26, the melting temperature can only be roughly estimated for this conjugate.

In the case of `CC[C@H](C)[C@H](NC(=O)[C@H](Cc1c[nH]cn1)NC(=O)[C@H](CC(C)C)NC(=O)[C@H](CCCCN)NC(=O)[C@H](CC(C)C)NC(=O)[C@H](C)NC(=O)[C@H](CCC(=O)O)NC(=O)[C@@H](NC(=O)CNC(=O)[C@H](CCC(=O)O)NC(=O)[C@@H](NC(=O)[C@@H](NC(=O)[C@H](CCCCN)NC(=O)[C@H](C)NC(=O)[C@H](CCCCN)NC(=O)[C@H](CC(N)=O)NC(=O)[C@@H](NC(=O)[C@H](CC(C)C)NC(=O)[C@H](CCCNC(=N)N)NC(=O)[C@H](CCCCN)NC(=O)[C@H](Cc1ccc(O)cc1)NC(=O)[C@H](Cc1ccccc1)NC(=O)[C@H](CC(=O)O)NC(=O)[C@H](CO)NC(=O)[C@@H](NC(=O)CNC(=O)[C@H](Cc1ccc(O)cc1)NC(=O)[C@H](CCCCNC(=O)CSCCC(=O)NCCOCCOCCOCCOCCC(=O)N[C@H](Cc1ccccc1)C(=O)N[C@@H](CCC(N)=O)C(=O)N[C@@H](Cc1c[nH]c2ccccc12)C(=O)N[C@@H](C)C(=O)N[C@H](C(=O)NCC(=O)N[C@@H](Cc1c[nH]cn1)C(=O)N[C@@H](CC(C)C)[C@@H](O)CC(=O)N[C@@H](CC(C)C)C(N)=O)C(C)C)NC(=O)[C@H](CC(=O)O)NC(=O)[C@H](CC(C)C)NC(=O)[C@H](CCC(=O)O)NC(=O)[C@H](CCCNC(=N)N)NC(=O)[C@H](CC(N)=O)NC(=O)[C@H](C)NC(=O)[C@H](CC(C)C)NC(=O)[C@@H](NC(=O)[C@H](CCCCN)NC(=O)[C@H](C)NC(=O)[C@H](CCC(=O)O)NC(=O)[C@H](C)NC(=O)[C@H](CC(C)C)NC(=O)CN1CCN(CC(=O)O)CCN(CC(=O)O)CCN(CC(=O)O)CC1)C(C)C)C(C)C)[C@@H](C)CC)[C@@H](C)O)C(C)C)C(C)C)C(=O)N[C@@H](CC(C)C)C(=O)N[C@@H](C)C(=O)N[C@@H](C)C(=O)N[C@@H](CC(C)C)C(=O)N1CCC[C@H]1C(N)=O` [[^111In]In-DOTA-ABD-RM26, metal not drawn], the tissue uptake at 1 h in series [1] (activity concentration in blood 1 h pi) worked out at 32 ± 4 %ID/g; in series [1] (bone uptake 1 h pi) it was 3.3 ± 0.4 %ID/g; in series [1] (kidney uptake 1 h pi), 35 ± 6 %ID/g; in series [1] (tumor activity uptake 1 h pi), 7 ± 2 %ID/g. For the same compound, the figures for the tissue uptake at 24 h in series [1] (bone uptake 24 h pi) and in series [1] (tumor activity uptake 24 h pi) were 4.4 ± 0.5 %ID/g and 11 ± 2 %ID/g, respectively. The tissue uptake at 144 h in series [1] (tumor activity uptake 144 h pi) stood at 10 ± 1 %ID/g. Also, the “activity uptake in other organs at 24 h pi” value in the series on PC-3 xenografts is reported as “activity uptake remained stable in the majority of the other studied organs”. The tissue uptake at 72 h in series [2] turned out to be 10 ± 1 %ID/g.

As to “Mercaptopropionyl-[PEG4]-D-Phe-Gln-Trp-Ala-Val-Gly-His-Sta-Leu-NH2 [RM26]”, the pharmacokinetics entry on GRPR [3] is recorded as “favorable pharmacokinetics”. The renal reabsorption result on GRPR [4] was “low renal reabsorption”.

For bombesin, in series [5], the “secondary structure upon interaction with lipids and membranes” value is given as “form alpha-helical structures”.
